Target: the molecule itself
Experiment: SEC-MALS

B1: IKK2EE(11–669) (domain or fragment)
chain: TCGAWEMKERLGTGGFGNVIRWHNQETGEQIAIKQCRQELSPRNRERWCLEIQIMRRLTHPNVVAARDVPEGMQNLAPNDLPLLAMEYCQGGDLRKYLNQFENCCGLREGAILTLLSDIASALRYLHENRIIHRDLKPENIVLQQGEQRLIHKIIDLGYAKELDQGELCTEFVGTLQYLAPELLEQQKYTVTVDYWSFGTLAFECITGFRPFLPNWQPVQWHSKVRQKSEVDIVVSEDLNGTVKFSSSLPYPNNLNSVLAERLEKWLQLMLMWHPRQRGTDPTYGPNGCFKALDDILNLKLVHILNMVTGTIHTYPVTEDESLQSLKARIQQDTGIPEEDQELLQEAGLALIPDKPATQCISDGKLNEGHTLDMDLVFLFDNSKITYETQISPRPQPESVSCILQEPKRNLAFFQLRKVWGQVWHSIQTLKEDCNRLQQGQRAAMMNLLRNNSCLSKMKNSMASMSQQLKAKLDFFKTSIQIDLEKYSEQTEFGITSDKLLLAWREMEQAVELCGRENEVKLLVERMMALQTDIVDLQRSPMGRKQGGTLDDLEEQARELYRRLREKPRDQRTEGDSQEMVRLLLQAIQSFEKKVRVIYTQLSKTVVCKQKALELLPKVEEVVSLMNEDEKTVVRLQEKRQKELWNLLKIACSKVRGPV
stoichiometry N: 2

From PMC3977576 (Biochemistry, 2014)
